Key:
[1] = biological target: T1, human CD40 on the cell surface (human, UniProt P25942 21-277); assay: flow cytometry on Jurkat cells overexpressing human CD40, PE anti-human IgG, MFI
T1 construct: whole, on cells; also called cell surface CD40; Jurkat-CD40 cells
Protocol: To evaluate their binding affinity to cell surface CD40, chimeric anti-CD40 monospecific antibodies were tested in Jurkat cell lines that overexpressed CD40 by FACS. A total number of 1×10⁵ Jurkat-CD40 cells in each well were incubated with 10-fold serially diluted antibodies starting from 100 nM for 30 minutes at 4° C. in FACS buffer. After wash by FACS buffer, PE conjugated-anti-human IgG antibody was added to each well and incubated at 4 °C for 30 minutes. After wash, MFI of PE was evaluated by MACSQuant Analyzer 16.

[2] = biological target: T1, human CD40 on the cell surface; assay: flow cytometry on human monocyte-derived dendritic cells (CD11c+ gate), PE anti-human IgG Fc, MFI
[3] = biological target: T2, cynomolgus CD40-His protein (cynomolgus, UniProt G7PG38 21-193); assay: ELISA, coated cynomolgus CD40-His
T2 construct: Recombinant His-tagged protein; also called cyno CD40 antigen; not shown: His tag
Protocol: (§1) The binding affinity of these clones to cynomolgus CD40 was also tested. Microtiter plates were coated with cynomolgus CD40-His protein at 1.0 μg/ml in PBS, 100 μl/well at 4 °C overnight, then blocked with 150 μl/well of 1% BSA. Ten-fold dilutions of 42p155, 2p834, 2p931, 42p655, 2p1294, 2p957, 42p495, 3p78, 2p415, 2p442, 2p551, 2p80 and 2p1130 antibodies starting from 100 nM were added to each well and incubated for 1 hour at RT. The plates were washed with PBS/Tween and then incubated with Anti-Human IgG (H&L) (GOAT) Antibody Peroxidase Conjugated for 30 mins at RT. After washing, the plates were developed with TMB substrate and analyzed by spectrophotometer at OD 450 nm. As shown in FIG. 1B and Table 2, all these clones bound to cynomolgus CD40 at high activity, showing good cross-reactivity between human and cynomolgus CD40 proteins.

human CD40-His protein [4] = biological target: T3, human CD40-His protein (human, UniProt P25942 21-193); assay: SPR (Biacore T200), antibody captured on Protein A
T3 construct: Recombinant His-tagged protein; also called human CD40-his tag; recombinant CD40 protein; not shown: His tag
T3 sequence (P25942 21-193 limits assumed): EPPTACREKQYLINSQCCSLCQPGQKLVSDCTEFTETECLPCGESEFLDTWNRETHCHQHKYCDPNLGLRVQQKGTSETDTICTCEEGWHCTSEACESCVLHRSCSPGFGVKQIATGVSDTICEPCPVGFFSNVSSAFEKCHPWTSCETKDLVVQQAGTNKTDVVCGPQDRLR
Protocol: The binding of the humanized 42pl55 and 2p442 antibodies to recombinant human CD40 protein (human CD40-his tag) was tested by Biacore and Octet, respectively, using a capture method.
For humanized 42pl55 monoclonal antibodies, 42p155z2 and 42p155z3 were captured using Protein A chip. A serial dilution of human CD40-his tag protein was injected over captured antibody for 3 mins at a flow rate of 10 μl/min. The antigen was allowed to dissociate for 6 min. All the experiments were carried out on a Biacore T200. Data analysis was carried out using Biacore T200 evaluation software.

human CD40-His protein [5] = biological target: T3, human CD40-His protein; assay: ELISA, coated human CD40-His
Protocol: as §1, with “Briefly, microtiter” for “The binding affinity of these clones to cynomolgus CD40 was also tested. Microtiter”, “human” for “cynomolgus”, “4° C.” for “4 °C”, “nm.” for “nm. As shown in FIG. 1B and Table 2, all these clones bound to cynomolgus CD40 at high activity, showing good cross-reactivity between human and cynomolgus CD40 proteins.”

T1 sequence (P25942 21-277): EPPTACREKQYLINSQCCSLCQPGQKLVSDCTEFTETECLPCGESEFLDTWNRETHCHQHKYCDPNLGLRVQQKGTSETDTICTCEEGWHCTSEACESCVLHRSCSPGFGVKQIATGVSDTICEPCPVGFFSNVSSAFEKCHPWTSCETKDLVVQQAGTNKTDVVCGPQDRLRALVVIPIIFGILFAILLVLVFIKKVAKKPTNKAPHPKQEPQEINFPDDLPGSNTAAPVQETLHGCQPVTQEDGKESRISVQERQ

B1: 42p495 chimeric monospecific antibody (antibody, V domains shown)
VH: PVQLVESGGNLVQPGGSLRLSCVAPGFTSRNSAMSWVRQAPGKGLEWVSTIYSGKSNTDYADSVKGRFTISTDNAKNTLYLHMNKLKSEDTAVYYCAKGAASDWYVPRDYWGQGTQVTVSS
notes: VHH-chimeric monospecific antibody (cAb), detected with anti-human IgG
[1]
  EC50 (read off the curve): ~2 nM

B2: 2p834 anti-Claudin 18.2/CD40 bispecific antibody (bispecific antibody, part only; not given: Claudin 18.2 Fab, constant regions, linker, V domains shown, not shown: another chain or arm of the molecule; a dimerising Fc or GST; small tags and cut ends)
VHH: QSQLVESGGGLVQPGGSLRLSCAASGFAFRRYTMSWVRQAPGKGLEWVSTITHNGSITTYAESAQGRFTISRDNAKNTLYLQMNSLKPEDTAVYYCAQGGGSNYYRESWGQGTQVTVSS
[2]
  EC50 (read off the curve): 1 nM

B3: 42p155 chimeric monospecific antibody (antibody, V domains shown)
VH: PSQLVESGGGLVQPGGSLRLSCAASGFAFRSYTMSWVRQAPGKGLEWVSTITHNGAITTYAESAQGRFTISRDNAKNTLYLQMNSLKPEDTAVYYCAQGGGSNYYRESWGQGTQVTVSS
notes: VHH-chimeric monospecific antibody (cAb), detected with anti-human IgG; also called 42pl55; not shown: human constant part (Fc) of the chimeric VHH antibody
[3]
  EC50: 0.9 nM
Human CD40-His protein [4]
  Kd: 86.9 nM
  koff: 0.0451 s⁻¹
  kon: 519000 M⁻¹ s⁻¹
[1]
  EC50 (read off the curve): ~0.3 nM
Human CD40-His protein [5]
  EC50: 1.73 nM

B4: 2p1294 chimeric monospecific antibody (antibody, V domains shown)
VH: QVQLVESGGGLVQPGGSLRLSCAASGFSFRRYTMSWVRQAPGKGLEWVSAISDNGAITTYTESAQGRFTISRDNAKNTLYLQMNSLKPEDTAVYYCAQGGGSNYYRESWGQGTQVTVSS
notes: as for B1
[1]
  EC50 (read off the curve): ~0.3 nM

B5: 2p957 chimeric monospecific antibody (antibody, V domains shown)
VH: PVQLVESGGGLVQPGGSLRLSCAASGFSFRNYIMSWVRQAPGKGLEWLSSITNSGGITSYTESVKGRFTISRDNAKNTLYLQMNSLKPEDTAVYYCAQGGSDNYYRGSWGQGTQVTVSS
notes: as for B1
[1]
  EC50 (read off the curve): ~3 nM

Source: patent publication US20240247073A1 (CONCEPT TO MEDICINE BIOTECH, published 2024)
